B1: polypeptide E45 (receptor)
chain: DPCFRANCEYQCQPLNQTSYLCVCAEGFAPIPHEPHRCQMFCNQTACPADCDPNTQASCECPEGYILDDGFICTDI
B2: polypeptide E456GlaAsp (receptor)
chain: PVEDPCFRANCEYQCQPLNQTSYLCVCAEGFAPIPHEPHRCQMFCNQTACPADCDPNTQASCECPEGYILDDGFICTDIDECENGGFCSGVCHNLPGTFECICGPDSALVRHIGTDC
modifications: gamma-carboxyglutamic acid (Gla) in place of the Glu inserted before Asp367 (third residue of the purified polypeptide, where Edman degradation detected no amino acid; Gla confirmed by amino acid analysis)

Experiments:
protein C [1] = target: protein C
thrombin [2] = target: thrombin
protein C [3] = target: protein C; remark: listed apart in the source
thrombin [4] = target: thrombin; remark: listed apart in the source

| Binder | production of activated protein C (protein C [1]) [pmol] | production of activated protein C (thrombin [2]) [pmol] | amount of activated protein C formed, 30 min after the polypeptide addition (Example 5) (% larger than with E456Glu) (protein C [3]) | amount of activated protein C formed, 30 min after the polypeptide addition (Example 5) (% larger than with E456Glu) (thrombin [4]) |
| --- | --- | --- | --- | --- |
| B1 | 1.7 | 1.7 | – | – |
| B2 | – | – | 80 | 80 |

Source: US5574007
